Laboratory results as given in patent US20140178389A1 (AbbVie / Abbott, published 2014).
Values belong to the binder of their own block, whether it stands above or below them.

What was measured:
[1] = target: T1, recombinant cynomolgus IL-1β (cynomolgus, UniProt P79182 117-268); experiment: SPR (Biacore), Expt 2
T1 construct: It was biotinylated in the ELISA and in the yeast display experiments; also called Cyno IL-1β; Cyno IL-1beta
T1 sequence (looked up): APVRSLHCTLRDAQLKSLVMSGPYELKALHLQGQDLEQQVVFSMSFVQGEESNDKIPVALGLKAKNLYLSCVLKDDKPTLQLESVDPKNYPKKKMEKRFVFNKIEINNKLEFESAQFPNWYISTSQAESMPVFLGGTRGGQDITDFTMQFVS
Experimental: (§1) Goat IgGs specific to human IgG Fc were covalently linked to the carboxy methyl dextran matrix on the CMS biosensor chip via free amine groups using an amine coupling kit and the immobilization wizard option in the Biacore instruments controlling software. Specifically, carboxyl groups of the dextran matrix on the chip were activated with NHS and EDC. Goat anti-human IgG Fc antibodies (25 μg/mL), diluted in 10 mM sodium acetate, pH 4.5, were injected across the activated surface. Once the level of binding response reached the desired value, unreacted groups were deactivated by injection of 1M ethanolamine. For binding of IL-1α & IL-1β to captured Ig, a 1 μg/mL concentration of Ig in HBS-EP+ was injected over the goat anti-human IgG Fc surface at a flow rate of 10 μL/min for 1 minute. The net difference in the baseline signal and the signal after the completion of the Ig injection was taken to represent the amount of bound Ig.

recombinant human IL-1β [2] = target: T2, recombinant human IL-1β (human, UniProt P01584 117-269); experiment: SPR (Biacore), Expt 2
T2 construct: It was biotinylated in the ELISA and in the yeast display experiments; also called Hu IL-1beta; huIL-1b
Experimental: as §1

[3] = target: T1, recombinant cynomolgus IL-1β; experiment: SPR (Biacore), Expt 1
Experimental: as §1

recombinant human IL-1β [4] = target: T2, recombinant human IL-1β; experiment: SPR (Biacore), Expt 1
Experimental: as §1

[5] = target: T1, recombinant cynomolgus IL-1β; experiment: SPR (Biacore), average of 2 experiments
Experimental: as §1

recombinant human IL-1β [6] = target: T2, recombinant human IL-1β; experiment: SPR (Biacore), average of 2 experiments
Experimental: as §1

[7] = target: T1, recombinant cynomolgus IL-1β; experiment: cell-based or functional assay
[8] = target: T3, purified native human IL-1β (human, UniProt P01584 117-269); experiment: cell-based or functional assay
recombinant human IL-1β [9] = target: T2, recombinant human IL-1β; experiment: cell-based or functional assay
[10] = target: T1, recombinant cynomolgus IL-1β; experiment: SPR (Biacore), Ig captured via goat anti-human IgG Fc, antigen in solution
Experimental: as §1

recombinant human IL-1β [11] = target: T2, recombinant human IL-1β; experiment: as above
Experimental: as §1

recombinant human IL-1α [12] = target: T4, recombinant human IL-1α (human, UniProt P01583 113-271); experiment: as above
T4 construct: also called Hu IL-1alpha; hIL-1α
T4 sequence: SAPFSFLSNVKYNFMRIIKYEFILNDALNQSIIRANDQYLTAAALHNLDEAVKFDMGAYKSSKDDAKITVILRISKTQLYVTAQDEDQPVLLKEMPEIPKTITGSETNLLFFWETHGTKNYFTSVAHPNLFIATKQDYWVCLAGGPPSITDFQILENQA
Experimental: as §1

[13] = target: T5, recombinant cynomolgus IL-1α (cynomolgus, UniProt P79340 113-271); experiment: as above
T5 construct: also called Cyno IL-1α; Cyno IL-1alpha
T5 sequence (looked up): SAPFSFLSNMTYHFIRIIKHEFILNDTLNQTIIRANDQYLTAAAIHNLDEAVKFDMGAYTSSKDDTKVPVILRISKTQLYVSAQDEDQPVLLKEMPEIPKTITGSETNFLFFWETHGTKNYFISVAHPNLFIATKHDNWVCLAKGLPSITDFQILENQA
Experimental: as §1

[14] = target: T6, native human IL-1α present in crude supernatants (human, UniProt P01583 113-271, limits assumed); experiment: cell-based or functional assay
T6 sequence (looked up): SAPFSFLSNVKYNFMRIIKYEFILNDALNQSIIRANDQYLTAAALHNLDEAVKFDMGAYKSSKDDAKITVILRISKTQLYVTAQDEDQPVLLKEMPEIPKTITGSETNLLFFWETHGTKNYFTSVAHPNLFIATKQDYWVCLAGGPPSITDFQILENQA

recombinant human IL-1α [15] = target: T4, recombinant human IL-1α; experiment: cell-based or functional assay
[16] = target: T5, recombinant cynomolgus IL-1α; experiment: cell-based or functional assay
recombinant human IL-1β [17] = target: T2, recombinant human IL-1β; experiment: SPR (BIAcore); the off-rate reached the limit of detection of the instrument
Experimental: as §1
(§2) The potency of the 5 DVD-Igs containing affinity matured h1B12.1 domains to recombinant and native IL-1 antigens was determined using the MRC-5 bioassay as shown in Table 24. The binding kinetics of the DVD-Igs to recombinant human and cynomolgus IL-1α and IL-1β were determined using surface plasmon resonance. In some cases, the off-rate could not be determined as they reached the limit of detection of the instrument.

recombinant human IL-1β [18] = target: T2, recombinant human IL-1β; experiment: SPR (BIAcore); KD calculated assuming an off-rate of 1x10^-6
Experimental: as §1, §2

[19] = target: T1, recombinant cynomolgus IL-1β; experiment: SPR (BIAcore), DVD-Ig captured via goat anti-human IgG Fc
Experimental: as §1, §2

recombinant human IL-1β [20] = target: T2, recombinant human IL-1β; experiment: as above
Experimental: as §1, §2

recombinant human IL-1α [21] = target: T4, recombinant human IL-1α; experiment: as above
Experimental: as §1, §2

[22] = target: T5, recombinant cynomolgus IL-1α; experiment: as above
Experimental: as §1, §2

[23] = target: T6, native human IL-1α present in crude …; experiment: cell-based or functional assay; remark: listed apart in the source
[24] = target: T1, recombinant cynomolgus IL-1β; experiment: cell-based or functional assay; remark: listed apart in the source
[25] = target: T3, purified native human IL-1β; experiment: cell-based or functional assay; remark: listed apart in the source
recombinant human IL-1β [26] = target: T2, recombinant human IL-1β; experiment: cell-based or functional assay; remark: listed apart in the source
recombinant human IL-1α [27] = target: T4, recombinant human IL-1α; experiment: cell-based or functional assay; remark: listed apart in the source
[28] = target: T5, recombinant cynomolgus IL-1α; experiment: cell-based or functional assay; remark: listed apart in the source

koff (recombinant human IL-1β [17]): < 1e-06 s⁻¹ | Kd (recombinant human IL-1β [18]): < 0.026 pM | Kd [19]: 0.67 pM | koff [19]: 1.2e-05 s⁻¹ | kon [19]: 1.8e+07 M⁻¹ s⁻¹ | kon (recombinant human IL-1β [20]): 3.9e+07 M⁻¹ s⁻¹ | Kd (recombinant human IL-1α [21]): 30 pM | koff (recombinant human IL-1α [21]): 4.2e-06 s⁻¹ | kon (recombinant human IL-1α [21]): 140000 M⁻¹ s⁻¹ | Kd [22]: 2300 pM | koff [22]: 0.00024 s⁻¹ | kon [22]: 100000 M⁻¹ s⁻¹ | Potency (IC50) pM, MRC-5 bioassay [23]: 50.4 pM | Potency (IC50) pM, MRC-5 bioassay [24]: 2.13 pM | Potency (IC50) pM, MRC-5 bioassay [25]: 0.998 pM | Potency (IC50) pM, MRC-5 bioassay (recombinant human IL-1β [26]): 42.2 pM | Potency (IC50) pM, MRC-5 bioassay (recombinant human IL-1α [27]): 41.3 pM | Potency (IC50) pM, MRC-5 bioassay [28]: 1900 pM
B3: DVD3-h1B12.34-SS-X3, human anti-IL-1α/β DVD IgG1/k mut (234,235) (bispecific antibody)
heavy: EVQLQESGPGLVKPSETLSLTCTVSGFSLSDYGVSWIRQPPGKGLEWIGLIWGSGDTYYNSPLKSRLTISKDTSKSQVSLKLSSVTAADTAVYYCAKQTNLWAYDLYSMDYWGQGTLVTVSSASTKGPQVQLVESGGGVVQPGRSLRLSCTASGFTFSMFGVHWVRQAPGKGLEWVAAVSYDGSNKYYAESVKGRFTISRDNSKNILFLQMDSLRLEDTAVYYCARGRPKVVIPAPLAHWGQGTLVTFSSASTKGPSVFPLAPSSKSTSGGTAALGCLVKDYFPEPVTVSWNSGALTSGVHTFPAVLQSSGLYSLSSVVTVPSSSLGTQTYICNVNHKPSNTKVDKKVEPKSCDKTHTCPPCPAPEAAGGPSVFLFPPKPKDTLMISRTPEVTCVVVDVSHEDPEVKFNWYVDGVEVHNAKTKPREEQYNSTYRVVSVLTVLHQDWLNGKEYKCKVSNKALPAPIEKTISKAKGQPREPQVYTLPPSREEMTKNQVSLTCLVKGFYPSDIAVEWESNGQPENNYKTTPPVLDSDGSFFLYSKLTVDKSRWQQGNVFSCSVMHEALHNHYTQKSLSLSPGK
light: DIQMTQSPSSLSASVGDRVTITCQASQDIDDDLNWYQQKPGKAPKLLISLASILRPGVPSRFSGSGSGTDFTFTISSLQPEDFATYYCLQSDSFPLTFGQGTKLEIKRTVAAPDIQMTQSPSSVSASVGDRVTITCRASQGISSWLAWYQQKPGKAPKLLIYEASNLETGVPSRFSGSGSGSDFTLTISSLQPEDFATYYCQQTSSFLLSFGGGTKVEHKRTVAAPSVFIFPPSDEQLKSGTASVVCLLNNFYPREAKVQWKVDNALQSGNSQESVTEQDSKDSTYSLSSTLTLSKADYEKHKVYACEVTHQGLSSPVTKSFNRGEC
notes: also called PR-1358318

Potency IC50 (pM), MRC-5 bioassay (IL-8 secretion) [7]: 410 pM | Potency IC50 (pM), MRC-5 bioassay (IL-8 secretion) [8]: 329 pM | Potency IC50 (pM), MRC-5 bioassay (IL-8 secretion) (recombinant human IL-1β [9]): 913 pM
B4: Humanized monoclonal antibody 1B12.1 (antibody, V domains shown)
VH: EVQLQESGPGLVKPSETLSLTCTVSGFSLSDYGVSWIRQPPGKGLEWLGLIWGGGDTYYNSPLKSRLTISKDNSKSQVSLKLSSVTAADTAVYYCAKQRTLWGYDLYGMDYWGQGTLVTVSS
VL: DTQVTQSPSSLSASVGDRVTITCITSTDIDVDMNWYQQKPGKPPKLLISQGNTLRPGVPSRFSSSGSGTDFTFTISSLQPEDFATYYCLQSDNLPLTFGQGTKLEIK

Continued, binder first:

B1: 1B12.9, human anti-IL-1β IgG1/k mut (234,235) (antibody, V domains shown)
VH: EVQLQESGPGLVKPSETLSLTCTVSGFSLSDYGVSWIRQPPGKGLEWLGLIWGGGDTYYNSPLKSRLTISKDNSKSQVSLKLSSVTAADTAVYYCAKQRTLWGYDLYGMDYWGQGTLVTVSS
VL: DTQMTQSPSSLSASVGDRVTITCITSTDIDVDMNWYQQKPGKPPKLLISQGNTLRPGVPSRFSSSGSGTDFTFTISSLQPEDFATYYCLQSDNLPLTFGQGTKLEIKR
notes: also called PR-1317335; mAb 1B12.9
Kd [1]: 600 pM | koff [1]: 0.00085 s⁻¹ | kon [1]: 1.4e+06 M⁻¹ s⁻¹ | Kd (recombinant human IL-1β [2]): 130 pM | koff (recombinant human IL-1β [2]): 0.00077 s⁻¹ | kon (recombinant human IL-1β [2]): 5.8e+06 M⁻¹ s⁻¹ | Kd [3]: 490 pM | koff [3]: 0.00098 s⁻¹ | kon [3]: 2e+06 M⁻¹ s⁻¹ | Kd (recombinant human IL-1β [4]): 140 pM | koff (recombinant human IL-1β [4]): 0.00076 s⁻¹ | kon (recombinant human IL-1β [4]): 5.5e+06 M⁻¹ s⁻¹ | Kd [5]: 550 pM | koff [5]: 0.00092 s⁻¹ | kon [5]: 1.7e+06 M⁻¹ s⁻¹ | Kd (recombinant human IL-1β [6]): 140 pM | koff (recombinant human IL-1β [6]): 0.00077 s⁻¹ | kon (recombinant human IL-1β [6]): 5.7e+06 M⁻¹ s⁻¹ | Potency IC50 (pM), MRC-5 bioassay (IL-8 secretion) [7]: 352 pM | Potency IC50 (pM), MRC-5 bioassay (IL-8 secretion) [8]: 214 pM | Potency IC50 (pM), MRC-5 bioassay (IL-8 secretion) (recombinant human IL-1β [9]): 691 pM

B2: 1B12.1-SS-X3 DVD-Ig IgG1/k mut (234,235) (bispecific antibody)
heavy: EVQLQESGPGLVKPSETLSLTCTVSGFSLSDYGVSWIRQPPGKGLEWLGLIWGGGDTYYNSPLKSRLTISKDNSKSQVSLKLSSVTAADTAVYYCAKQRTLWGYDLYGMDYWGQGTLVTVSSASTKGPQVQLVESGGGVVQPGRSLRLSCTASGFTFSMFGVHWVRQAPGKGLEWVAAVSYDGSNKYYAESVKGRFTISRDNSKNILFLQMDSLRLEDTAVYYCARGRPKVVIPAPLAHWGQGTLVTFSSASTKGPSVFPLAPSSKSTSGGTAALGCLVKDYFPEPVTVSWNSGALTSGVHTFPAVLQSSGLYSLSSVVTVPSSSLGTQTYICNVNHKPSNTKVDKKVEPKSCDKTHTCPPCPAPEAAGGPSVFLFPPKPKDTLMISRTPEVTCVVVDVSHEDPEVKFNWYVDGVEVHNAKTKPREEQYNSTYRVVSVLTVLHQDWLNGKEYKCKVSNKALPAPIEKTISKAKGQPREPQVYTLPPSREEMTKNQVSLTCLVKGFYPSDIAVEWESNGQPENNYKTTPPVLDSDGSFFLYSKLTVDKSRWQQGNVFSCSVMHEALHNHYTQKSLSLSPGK
light: DTQVTQSPSSLSASVGDRVTITCITSTDIDVDMNWYQQKPGKPPKLLISQGNTLRPGVPSRFSSSGSGTDFTFTISSLQPEDFATYYCLQSDNLPLTFGQGTKLEIKRTVAAPDIQMTQSPSSVSASVGDRVTITCRASQGISSWLAWYQQKPGKAPKLLIYEASNLETGVPSRFSGSGSGSDFTLTISSLQPEDFATYYCQQTSSFLLSFGGGTKVEHKRTVAAPSVFIFPPSDEQLKSGTASVVCLLNNFYPREAKVQWKVDNALQSGNSQESVTEQDSKDSTYSLSSTLTLSKADYEKHKVYACEVTHQGLSSPVTKSFNRGEC
notes: also called PR-1308565
Kd [10]: 110 pM | koff [10]: 0.0008 s⁻¹ | kon [10]: 7.3e+06 M⁻¹ s⁻¹ | Kd (recombinant human IL-1β [11]): < 820 pM | koff (recombinant human IL-1β [11]): 0.00082 s⁻¹ | kon (recombinant human IL-1β [11]): > 1e+06 M⁻¹ s⁻¹ | Kd (recombinant human IL-1α [12]): 120 pM | koff (recombinant human IL-1α [12]): 2.4e-05 s⁻¹ | kon (recombinant human IL-1α [12]): 210000 M⁻¹ s⁻¹ | Kd [13]: 3500 pM | koff [13]: 0.00026 s⁻¹ | kon [13]: 74000 M⁻¹ s⁻¹ | Potency IC50 (pM), MRC-5 bioassay (IL-8 secretion) [14]: 79 pM | Potency IC50 (pM), MRC-5 bioassay (IL-8 secretion) [7]: 461 pM | Potency IC50 (pM), MRC-5 bioassay (IL-8 secretion) [8]: 156 pM | Potency IC50 (pM), MRC-5 bioassay (IL-8 secretion) (recombinant human IL-1β [9]): 26 pM | Potency IC50 (pM), MRC-5 bioassay (IL-8 secretion) (recombinant human IL-1α [15]): 27 pM | Potency IC50 (pM), MRC-5 bioassay (IL-8 secretion) [16]: 2510 pM
